In US20080021198:

Biological target: methylated PP2A A-C hetero-dimer (bovine brain, methylated in vitro with PMT and H^3-SAM), Q32PI5
Sequence (Q32PI5 2-589, chain 1 of 2): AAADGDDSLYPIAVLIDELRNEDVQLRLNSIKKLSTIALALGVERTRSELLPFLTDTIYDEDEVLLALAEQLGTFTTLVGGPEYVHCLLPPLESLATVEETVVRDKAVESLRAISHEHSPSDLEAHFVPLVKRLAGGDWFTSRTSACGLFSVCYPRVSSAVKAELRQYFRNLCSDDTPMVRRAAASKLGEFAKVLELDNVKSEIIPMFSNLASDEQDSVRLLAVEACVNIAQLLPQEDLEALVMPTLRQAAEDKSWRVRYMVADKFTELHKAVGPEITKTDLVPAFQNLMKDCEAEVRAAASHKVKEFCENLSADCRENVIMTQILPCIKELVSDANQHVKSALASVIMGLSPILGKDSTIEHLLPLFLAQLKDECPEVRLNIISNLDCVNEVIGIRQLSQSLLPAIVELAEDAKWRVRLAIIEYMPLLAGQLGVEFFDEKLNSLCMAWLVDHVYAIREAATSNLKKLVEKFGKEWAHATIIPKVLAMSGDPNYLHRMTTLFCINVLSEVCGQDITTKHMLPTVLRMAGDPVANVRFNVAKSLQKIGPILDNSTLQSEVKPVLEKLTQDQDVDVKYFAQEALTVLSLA
Sequence (chain, as listed by the source, chain 2 of 2): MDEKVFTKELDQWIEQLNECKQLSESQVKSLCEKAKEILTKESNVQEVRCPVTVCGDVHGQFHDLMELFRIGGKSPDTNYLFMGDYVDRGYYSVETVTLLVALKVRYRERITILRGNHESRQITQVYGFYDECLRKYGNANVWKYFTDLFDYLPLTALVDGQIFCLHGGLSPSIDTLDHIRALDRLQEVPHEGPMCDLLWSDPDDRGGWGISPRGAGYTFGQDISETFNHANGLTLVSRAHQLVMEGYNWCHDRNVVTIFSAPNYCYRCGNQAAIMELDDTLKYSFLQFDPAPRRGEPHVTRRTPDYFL

Protein	enzyme activity (methyl esterase, release of H^3-methanol)	methyl esterase activity (release of H^3-methanol)
PME S156A mutant (protein) MSALEKSMHLGRLPSRPPLPGSGGSQSGAKMRMGPGRKRDFSPVPWSQYFESMEDVEVENETGKDTFRVYKSGSEGPVLLLLHGGGHSALSWAVFTAAIISRVQCRIVALDLRSHGETKVKNPEDLSAETMAKDVGNVVEAMYGDLPPPIMLIGHAMGGAIAVHTASSNLVPSLLGLCMIDVVEGTAMDALNSMQNFLRGRPKTFKSLENAIEWSVKSGQIRNLESARVSMVGQVKQCEGITSPEGSKSIVEGIIEEEEEDEEGSESISKRKKEDDMETKKDHPYTWRIELAKTEKYWDGWFRGLSNLFLSCPIPKLLLLAGVDRLDKDLTIGQMQGKFQMQVLPQCGHAVHEDAPDKVAEAVATFLIRHRFAEPIGGFQCVFPGC	mutation of Ser156 to alanine completely abolished the enzyme activity	–
PME S156C mutant (protein) MSALEKSMHLGRLPSRPPLPGSGGSQSGAKMRMGPGRKRDFSPVPWSQYFESMEDVEVENETGKDTFRVYKSGSEGPVLLLLHGGGHSALSWAVFTAAIISRVQCRIVALDLRSHGETKVKNPEDLSAETMAKDVGNVVEAMYGDLPPPIMLIGHCMGGAIAVHTASSNLVPSLLGLCMIDVVEGTAMDALNSMQNFLRGRPKTFKSLENAIEWSVKSGQIRNLESARVSMVGQVKQCEGITSPEGSKSIVEGIIEEEEEDEEGSESISKRKKEDDMETKKDHPYTWRIELAKTEKYWDGWFRGLSNLFLSCPIPKLLLLAGVDRLDKDLTIGQMQGKFQMQVLPQCGHAVHEDAPDKVAEAVATFLIRHRFAEPIGGFQCVFPGC	mutation to threonine and cysteine retained 10% and 40% of the enzyme activity, respectively	–
PME S156T mutant (protein) MSALEKSMHLGRLPSRPPLPGSGGSQSGAKMRMGPGRKRDFSPVPWSQYFESMEDVEVENETGKDTFRVYKSGSEGPVLLLLHGGGHSALSWAVFTAAIISRVQCRIVALDLRSHGETKVKNPEDLSAETMAKDVGNVVEAMYGDLPPPIMLIGHTMGGAIAVHTASSNLVPSLLGLCMIDVVEGTAMDALNSMQNFLRGRPKTFKSLENAIEWSVKSGQIRNLESARVSMVGQVKQCEGITSPEGSKSIVEGIIEEEEEDEEGSESISKRKKEDDMETKKDHPYTWRIELAKTEKYWDGWFRGLSNLFLSCPIPKLLLLAGVDRLDKDLTIGQMQGKFQMQVLPQCGHAVHEDAPDKVAEAVATFLIRHRFAEPIGGFQCVFPGC	mutation to threonine and cysteine retained 10% and 40% of the enzyme activity, respectively	–
full-length PP2A methyl esterase (PME) (protein) MSALEKSMHLGRLPSRPPLPGSGGSQSGAKMRMGPGRKRDFSPVPWSQYFESMEDVEVENETGKDTFRVYKSGSEGPVLLLLHGGGHSALSWAVFTAAIISRVQCRIVALDLRSHGETKVKNPEDLSAETMAKDVGNVVEAMYGDLPPPIMLIGHSMGGAIAVHTASSNLVPSLLGLCMIDVVEGTAMDALNSMQNFLRGRPKTFKSLENAIEWSVKSGQIRNLESARVSMVGQVKQCEGITSPEGSKSIVEGIIEEEEEDEEGSESISKRKKEDDMETKKDHPYTWRIELAKTEKYWDGWFRGLSNLFLSCPIPKLLLLAGVDRLDKDLTIGQMQGKFQMQVLPQCGHAVHEDAPDKVAEAVATFLIRHRFAEPIGGFQCVFPGC	–	the PME core exhibits a similar methyl esterase activity to that of the full-length PME
trypsin-resistant structural core of PME (protein) chain 1: RDFSPVPWSQYFESMEDVEVENETGKDTFRVYKSGSEGPVLLLLHGGGHSALSWAVFTAAIISRVQCRIVALDLRSHGETKVKNPEDLSAETMAKDVGNVVEAMYGDLPPPIMLIGHSMGGAIAVHTASSNLVPSLLGLCMIDVVEGTAMDALNSMQNFLRGRPKTFKSLENAIEWSVKSGQIRNLESARVSMVGQVKQCEGITSPEGSK chain 2: KEDDMETKKDHPYTWRIELAKTEKYWDGWFRGLSNLFLSCPIPKLLLLAGVDRLDKDLTIGQMQGKFQMQVLPQCGHAVHEDAPDKVAEAVATFLIRHRFAEPIGGFQCVFPGC	–	the PME core exhibits a similar methyl esterase activity to that of the full-length PME
